Here are results for one molecule from publication PMC7782096, “BAP1 suppresses prostate cancer progression by deubiquitinating and stabilizing PTEN” (Molecular Oncology, 2020).

In the test the target is T1, His-tagged BAP1 protein (UniProt Q92560 1-729).
T1 construct: BAP1, full length, inserted into pET-28a; also called His-BAP1; source: E. coli expressing system, purified
T1 sequence (looked up): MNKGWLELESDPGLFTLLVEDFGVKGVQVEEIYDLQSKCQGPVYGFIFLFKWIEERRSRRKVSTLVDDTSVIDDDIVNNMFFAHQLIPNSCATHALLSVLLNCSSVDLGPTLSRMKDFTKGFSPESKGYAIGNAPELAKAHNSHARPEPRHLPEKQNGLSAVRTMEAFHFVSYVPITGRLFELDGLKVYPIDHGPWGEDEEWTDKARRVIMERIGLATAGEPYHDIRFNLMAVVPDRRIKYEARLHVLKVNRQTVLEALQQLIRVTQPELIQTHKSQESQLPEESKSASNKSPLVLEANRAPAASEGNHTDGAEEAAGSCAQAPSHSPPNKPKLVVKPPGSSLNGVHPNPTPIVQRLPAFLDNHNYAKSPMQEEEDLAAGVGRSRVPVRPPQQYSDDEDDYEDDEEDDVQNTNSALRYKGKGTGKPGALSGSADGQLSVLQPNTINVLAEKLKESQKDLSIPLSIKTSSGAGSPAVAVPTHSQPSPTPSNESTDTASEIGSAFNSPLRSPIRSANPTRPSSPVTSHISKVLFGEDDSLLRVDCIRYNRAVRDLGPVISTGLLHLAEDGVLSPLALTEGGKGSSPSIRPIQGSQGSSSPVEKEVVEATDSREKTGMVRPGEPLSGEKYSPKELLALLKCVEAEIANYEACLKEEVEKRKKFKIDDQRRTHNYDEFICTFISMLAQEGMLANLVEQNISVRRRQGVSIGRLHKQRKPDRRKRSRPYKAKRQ
The test can be described thus: pull-down; purified GST-PTEN on GST beads incubated with recombinant His-BAP1 purified from E. coli, 4 °C; western blotting. Particulars: both partners purified. Background: In western blotting, separated proteins are transferred to a membrane and probed.

B1: GST-tagged PTEN recombinant protein (natural protein)
chain: not shown
notes: PTEN; also called GST-PTEN; source: bacterially expressed (E. coli), purified
In the case of B1, the binding result is “binds”.
